Experimental data: US20160075744, “DNA-BINDING PROTEIN USING PPR MOTIF, AND USE THEREOF” (KYUSHU UNIVERSITY, NATATIONAL UNIVERSITY CORPORATION, published 2016)

Tests used:
GUN1-VP64 [1] = biological target: T1, GUN1-VP64 (Arabidopsis thaliana, UniProt Q9SIC9 SEQ:234-620); experiment: cell_activity; HEK293T dual luciferase, 8x target, vs pminCMV-luc2
T1 chain: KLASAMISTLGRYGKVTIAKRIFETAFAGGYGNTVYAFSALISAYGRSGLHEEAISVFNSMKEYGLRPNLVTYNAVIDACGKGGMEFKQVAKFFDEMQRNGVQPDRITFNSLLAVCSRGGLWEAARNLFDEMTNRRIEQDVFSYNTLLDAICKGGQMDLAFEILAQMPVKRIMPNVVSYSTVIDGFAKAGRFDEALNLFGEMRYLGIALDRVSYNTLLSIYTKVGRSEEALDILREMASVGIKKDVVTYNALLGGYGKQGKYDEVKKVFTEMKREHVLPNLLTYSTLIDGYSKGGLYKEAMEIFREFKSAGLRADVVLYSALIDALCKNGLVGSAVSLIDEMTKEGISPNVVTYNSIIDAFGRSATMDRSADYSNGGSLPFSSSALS
Method: (§1) The PPR-VP64 expression vector prepared in the section 1, the firefly luciferase expression vector prepared in the section 2, and the pRL-CMV vector (expression vector for Renilla luciferase, Promega) as a reference were introduced by using Lipofectamine LTX (Life Technologies). The DMEM medium (25 μl) was added to each well of a 96-well plate, and a mixture containing the PPR-VP64 expression vector (400 ng), firefly luciferase expression vector (100 ng), and pRL-CMV vector (20 ng) was further added. Then, a mixture of the DMEM medium (25 μl) and Lipofectamine LTX (0.7 μl) was added to each well, the plate was left standing at room temperature for 30 minutes, then 6×10⁴ of the HEK293 T cells suspended in the DMEM medium containing 15% fetal bovine serum (100 μl) were added, and the cells were cultured at 37° C. in a CO₂ incubator for 24 hours.
(§2) The luciferase activity was compared for the cases of introducing pTac2-VP64 or GUN1-VP64 together with pminCMV-luc2 for a negative control, or the reporter vector having 4 or 8 target sequences (table mentioned below, FIG. 6). The comparison of the activity was performed on the basis of standardized scores obtained by dividing the measured values obtained with Fluc (firefly luciferase) with the measured value obtained with Rluc (Renilla luciferase) as the reference (Fluc/Rluc). […]

pTac2-VP64 [2] = biological target: T2, pTac2-VP64 (Arabidopsis thaliana, UniProt Q9S7Q2 SEQ:106-632); experiment: cell_activity; HEK293T dual luciferase, 4x target, vs pminCMV-luc2
T2 chain: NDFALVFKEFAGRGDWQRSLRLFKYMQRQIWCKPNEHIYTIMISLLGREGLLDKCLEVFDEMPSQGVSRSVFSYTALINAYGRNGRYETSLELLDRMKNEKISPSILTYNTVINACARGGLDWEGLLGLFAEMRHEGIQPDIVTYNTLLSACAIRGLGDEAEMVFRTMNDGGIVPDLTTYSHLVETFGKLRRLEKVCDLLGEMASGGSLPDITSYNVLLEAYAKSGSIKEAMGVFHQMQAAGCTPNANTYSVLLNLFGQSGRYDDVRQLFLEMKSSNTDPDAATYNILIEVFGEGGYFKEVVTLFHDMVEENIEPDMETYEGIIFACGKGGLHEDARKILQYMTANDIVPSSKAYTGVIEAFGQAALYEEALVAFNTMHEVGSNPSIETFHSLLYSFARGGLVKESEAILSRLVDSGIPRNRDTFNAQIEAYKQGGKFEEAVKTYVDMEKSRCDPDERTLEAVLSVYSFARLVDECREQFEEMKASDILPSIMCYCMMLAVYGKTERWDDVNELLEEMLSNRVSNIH
Method: as §1, §2

pTac2-VP64 [3] = biological target: T2, pTac2-VP64; experiment: cell_activity; HEK293T dual luciferase, 8x target, vs pminCMV-luc2
Method: as §1, §2

GUN1-VP64 [4] = biological target: T1, GUN1-VP64; experiment: cell_activity; HEK293T dual luciferase, 4x target, vs pminCMV-luc2
Method: as §1, §2

B1: GUN1 target (8x in reporter) (dsDNA)
DNA 1: AATTTGTCGAT
DNA 2: ATCGACAAATT
For B1, the activity (GUN1-VP64 [1]) was 3.15 fold activation.

B2: pTac2 target (4x in reporter) (dsDNA)
DNA 1: AACTTTCGTCACTCA
DNA 2: TGAGTGACGAAAGTT
With B2 the activity (pTac2-VP64 [2]) was 2.91 fold activation.

B3: pTac2 target (8x in reporter) (dsDNA)
DNA 1: AACTTTCGTCACTCA
DNA 2: TGAGTGACGAAAGTT
With B3 the activity (pTac2-VP64 [3]) was 4.81 fold activation.

B4: GUN1 target (4x in reporter) (dsDNA)
DNA 1: AATTTGTCGAT
DNA 2: ATCGACAAATT
With B4 the activity (GUN1-VP64 [4]) was 2.88 fold activation.
